Results reported in article PMC3639893, “Characterization of a Novel Metal-Dependent D-Psicose 3-Epimerase from Clostridium scindens 35704” (PLoS ONE, 2013).

Target: the molecule itself
Assay: SEC; gel filtration of the purified native enzyme, buffer and standards not told

B1: D-psicose 3-epimerase from Clostridium scindens ATCC 35704 (hypothetical protein CLOSCI_02528) (enzyme, UniProt B0NGC5 1-289, looked up)
chain: MKHGIYYAYWEQEWAADYKRYVEKAAKLGFDILEVGAAPLPDYSAQEVKELKKCADDNGIQLTAGYGPAFNHNMGSSDPKIREEALQWYKRLFEVMAGLDIHLIGGALYSYWPVDFATANKEEDWKHSVEGMQILAPIASQYGINLGMEVLNRFESHILNTSEEGVKFVTEVGMDNVKVMLDTFHMNIEESSIGDAIRHAGKLLGHFHTGECNRMVPGKGRTPWREIGDALREIEYDGTVVMEPFVRMGGQVGSDIKVWRDISKGAGEDRLDEDARRAVEFQRYMLEWK
notes: D-psicose 3-epimerase (hypothetical protein CLOSCI_02528, protein ID ZP_02432283) of Clostridium scindens ATCC 35704; full-length synthetic gene cloned NdeI/XhoI into pET-22b(+); No removal of the C-terminal 6xhistidine tag is described; Metal-free after dialysis against EDTA; Subunit about 32 kDa by SDS-PAGE, native enzyme about 125 kDa by gel filtration; also called C. scindens DPEase; DPEase
stoichiometry N: 4
